Experimental data: US20210380680A1 (ZLLP, published 2021)
Where a chain is given by its changes, count along the chain named. Names may count otherwise.

B1: hz282-1 (antibody, V domains shown)
VH: QVQLQESGPGLVKPSETLSLTCTVSGFSLTSYNVYWIRQPPGKGLEWIGVIWNTGATRYNSALKSRVTISVDTSKNQFSLKLSSVTAADTAVYYCARDSAMPAIPFAYWGQGTLVTVSS
VL: DIVMTQSPDSLAVSLGERATINCKSSQSLFGSVRQKNYLAWYQQKPGQPPKLLIYLASTRESGVPDRFSGSGSGTDFTLTISSLQAEDVAVYYCQQYYDIPWTFGGGTKVEIK
notes: humanized IgG; constant regions not specified; also called hz282-l
B2: hz282-5 (antibody, V domains shown)
VH: B1 VH
VL: B1 VL with P49S, V91K
notes: humanized IgG; constant regions not specified
B3: 413H9F8-VL-S32V (antibody, human IgG1, kappa, V domains shown)
VH: DVQLVESGGGSVQPGGSRRLSCAASGFTFSSFGMHWVRQAPEKGLEWVAYISSGSSPIYYVDKLKGRFTVSRDNPKNTLFLQMTSLRSEDTAMYYCARAGYAVRNALDYWGQGTSITVSS
VL: DIVMTQSPSSLSVSVGEKVTLSCKSSQSLLNVGNQKNYLAWYQQKTGQPPKLLIYGASTRESGVPDRFIGSGSGTDFTLTISSVQAEDLAVYFCQNDLFYPLTFGAGTKLELKR
notes: chimeric human IgG1, PTM site removed; also called 413H9F8-VL-32V; 413H9F8-VL-532V
B4: reference antibody 175D10 (xi175D10) (antibody, human IgG1, kappa, V domains shown)
VH: QVQLQQPGAELVRPGASVKLSCKASGYTFTSYWINWVKQRPGQGLEWIGNIYPSDSYTNYNQKFKDKATLTVDKSSSTAYMQLSSPTSEDSAVYYCTRSWRGNSFDYWGQGTTLTVSS
VL: DIVMTQSPSSLTVTAGEKVTMSCKSSQSLLNSGNQKNYLTWYQQKPGQPPKLLIYWASTRESGVPDRFTGSGSGTDFTLTISSVQAEDLAVYYCQNDYSYPFTFGSGTKLEIKR
notes: Fc variant D356/L358; also called chimeric 175D10
B5: 282A12F3 (T62A) (antibody, human IgG1, kappa, V domains shown)
VH: QVQLKESGPVLVQPSQTLSLTCTVAGFSLTSYNVYWVRQPPGKGLEWMGVIWNTGATRYNSALKSRLSISKDTSKSQVFLKMNSLQTEDTATYYCARDSAMPAIPFAYWGQGTLVTVSS
VL: DIVMTQSPSSLAVSAGETVTINCKSSQSLFGSVRQKNYLAWYQQKPGQSPKLLIYLASTRESGVPDRFIGSGSGTDFTLTISSVQAEDLAKYYCQQYYDIPWTFGGGTKLELKR
notes: chimeric human IgG1, PTM site removed; also called 282A12F3-VH-NSA (T62A); 282A12 (T62A)
B6: 357B8F8-VH-S61I-VL-S32I (antibody, human IgG1, kappa, V domains shown)
VH: QVQLKESGPGLVAPSQSLSITCTVSGFSLTSYGVHWVRQPPGKGLEWLGVIWPGGNTNYNIALMSRLSISKDNSKSQVFLKMNSLQTDDTAMYYCARDRRLAMDYWGQGTSVTVSS
VL: B4 VL with S22T, S32I, S83I, V84L
B7: 364D1A7-VL-S32V (antibody, human IgG1, kappa, V domains shown)
VH: DVQLVESGGGLVQPGGSRKLSCAASGFTFSSFGMHWVRQAPEKGLEWVAYISSGSGSIYYADTVKGRFTLSRDNPKNTLFLQMTSLRSEDTAIYYCATSYYYGNALEYWGQGTSVTVSS
VL: DVVLTQSPSSLTVTEGEKVSMSCKSSQSLFNVGNQKNYLTWYQQKPGQTPTLLIYWASTRKSGVPDRFTGSGSGTDFTLTINTVQAEDLAVYYCQNVYSYPLTFGAGTKLDLKR
notes: chimeric human IgG1, PTM site removed; also called 364D1A7-VL-32V
B8: 413H9F8-VL-S32L (antibody, human IgG1, kappa, V domains shown)
VH: B3 VH
VL: B3 VL with V32L
B9: 364D1A7-VL-S32L (antibody, human IgG1, kappa, V domains shown)
VH: B7 VH
VL: B7 VL with V32L
B10: 413H9F8-VL-S32V-V2-DL (antibody, V domains shown)
VH: B3 VH
VL: DIVMTQSPSSLSVSVGEKVTLSCKSSQSLLNVGNQKNYLAWYQQKTGQPPKLLIYGASTRESGVPDRFIGSGSGTDFTLTISSVQAEDLAVYFCQNDLFYPLTFGAGTKLELK
B11: Xi282A12F3(T62A)-V2-DL (antibody, V domains shown)
VH: B5 VH
VL: DIVMTQSPSSLAVSAGETVTINCKSSQSLFGSVRQKNYLAWYQQKPGQSPKLLIYLASTRESGVPDRFIGSGSGTDFTLTISSVQAEDLAKYYCQQYYDIPWTFGGGTKLELK
B12: hz282-15-V2 (antibody, V domains shown)
VH: B1 VH with V71K, N76S, F78V
VL: DIQMTQSPSSLSASVGDRVTITCKSSQSLFGSVRQKNYLAWYQQKPGKSPKLLIYLASTRESGVPDRFSGSGSGTDFTLTISSLQPEDFAKYYCQQYYDIPWTFGGGTKVEIK
B13: hz282-11-V2 (antibody, V domains shown)
VH: B1 VH with V71K, N76S, F78V
VL: B12 VL with S49A, D66S, K91T

What follows are binders tested against CLDN18.2 endogenously expressed on SNU620 gastric cancer cells (UniProt P56856) (assay: FACS Exp. 3, SNU620 cells).

| MFI SNU620 (@30 ug/ml) | Binder |
| --- | --- |
| 69.6 MFI | B1 |
| 135 MFI | B2 |

Each binder was assayed against T1, human Claudin 18.2 (CLDN18.2) (human, UniProt P56856-2 1-261) (assay: FACS on CHO-CLDN18.2 cells).
T1 construct: whole, on cells; recombinantly expressed on CHO, HEK293, NCI-N87, NUGC4 or PANC-1 cells; also called CHO-CLDN18.2

| EC50 | Binder |
| --- | --- |
| 1.84 nM | B3 |
| 9.32 nM | B4 |
| 4.45 nM | B5 |

The binders below were run against T1, human Claudin 18.2 (CLDN18.2) (assay: cell-based or functional assay).

| % ADCC @ 6.67 nM, NCI-N87-CLDN18.2, FcR-TANK | ADCC EC50, NCI-N87-CLDN18.2, FcR-TANK | Binder |
| --- | --- | --- |
| 13.9% | 0.33 nM | B3 |
| 11.9% |  | B4 |
| 2.3% | 1.81 nM | B6 |
| 14.6% | 2.25 nM | B5 |
| 15.3% | 0.34 nM | B7 |

Molecular target: T1, human Claudin 18.2 (CLDN18.2)
Assay: cell-based or functional assay
Remark: another data set of the same source

| ADCC EC50, NCI-N87-18.2 cells, FcR-TANK effectors | Binder |
| --- | --- |
| 7.84 nM | B3 |
| 8.56 nM | B8 |
| 96.4 nM | B4 |
| 159 nM | B6 |
| 73.2 nM | B5 |
| 12 nM | B7 |
| 9.56 nM | B9 |

What follows are binders tested against T2, CLDN18.2 endogenously expressed on SNU620 gastric cancer cells (UniProt P56856-2 1-261, limits assumed) (assay: FACS Exp. 3, SNU620 cells).
T2 construct: whole, on cells; also called SU620

| MFI_SNU620 (@30 ug/ml) | Binder |
| --- | --- |
| 1520 MFI | B5 |

Molecular target: T1, human Claudin 18.2 (CLDN18.2)
Assay: cell-based or functional assay
Remark: another data set of the same source

| ADCC EC50, NUGC4-CLDN18.2 cells, PBMC | ADCC EC50, NUGC4-CLDN18.2 cells, PBMC (1 donor) | Binder | % specific cytotoxicity @ 6.67 nM, NUGC4-CLDN18.2, PBMC |
| --- | --- | --- | --- |
| 7.69 nM |  | B3 | 31.4% |
| 9.21 nM |  | B4 | 16.8% |
| 4.87 nM |  | B6 | 19.6% |
|  | 9.52 nM | B5 | 21% |
| 6.36 nM |  | B7 | 26.6% |

Molecular target: T1, human Claudin 18.2 (CLDN18.2)
Assay: cell-based or functional assay
Remark: another data set of the same source

| CDC EC50, human serum, CHO-CLDN18.2 | Binder |
| --- | --- |
| 0.76 nM | B3 |
| 2.26 nM | B4 |
| 10.4 nM | B5 |
| 1.49 nM | B7 |

Molecular target: T1, human Claudin 18.2 (CLDN18.2)
Assay: FACS on CHO-CLDN18.2 cells
Remark: another data set of the same source

| EC50 | Binder |
| --- | --- |
| 7.24 nM | B4 |
| 3.87 nM | B7 |

Each binder was assayed against T1, human Claudin 18.2 (CLDN18.2) (assay: FACS Exp. 2, MFI ratio CHO-18.2 over CHO-18.1).

| MFI_CHO-18.2/CHO-18.1 (@30 ug/ml) | Binder |
| --- | --- |
| 1390 | B4 |
| 768 | B5 |

Molecular target: T1, human Claudin 18.2 (CLDN18.2)
Assay: FACS on CHO-CLDN18.2 cells
Remark: another data set of the same source

| EC50 | Binder |
| --- | --- |
| 2.14 nM | B3 |
| 7.52 nM | B4 |

What follows are binders tested against T1, human Claudin 18.2 (CLDN18.2) (assay: FACS Exp. 1, MFI ratio CHO-18.2 over CHO-18.1).

| MFI_CHO-18.2/CHO-18.1 (@30 ug/ml) | Binder |
| --- | --- |
| 1030 | B4 |
| 811 | B5 |
| 262 | B1 |
| 310 | B2 |

Molecular target: T1, human Claudin 18.2 (CLDN18.2)
Assay: cell-based or functional assay
Remark: another data set of the same source

| % internalization, NCI-N87-CLDN18.2, 37 C 2 h | % internalization, NUGC4-CLDN18.2, 37 C 2 h | Binder |
| --- | --- | --- |
| < 30% | < 15% | B10 |
| > 50% | > 80% | B11 |
| > 50% | > 80% | B12 |
| > 50% | > 80% | B13 |
